According to paper PMC8449659, “Depolymerization of biorefinery lignin by improved laccases of the white‐rot fungus Obba rivulosa” (Microbial Biotechnology, 2021):

B1: rOrLcc2-L497V (variant rOrLcc2-D206N) (Obba rivulosa; D227N/L518V) (protein)
chain: AIGPVTDLTITDVSISPDGFERAAVLAGGTFPGPLITGNIGDNFQINVVNQLSNETMLESTTIHWHGLFQKGTAWADGPAFVSQCPIATGNSFLYDFSVPDQAGTFWYHSHLATQYCDGLRGPLVVYDPNDAYLSDYDVDDDTTVITLADWYHTAATLGPRFPTQADATLINGLGRYSGGPESNLTVITVESGKRYRFRLVSISCNENYVFSIDDHEMIVIEADGVETQPVTVDSIQIFAAQRYSFILNATEAVDNYWIRATPDLGTTGFTDGINSAILRYVGANDTDPTTASNTTNLLSELDLHPLTNAAAPGAASQDPGSVDVSMNLELGFDGTNFTINGATFVPPTVPVLLQILSGAQSATDLLPSGSVFTLPSNSTVQVTLAAGTVAGGPHPFHLHGHTFSVVRSAGSDTYNYDNPVQRDTVSIGADGDNVTIRFDTNNPGPWFLHCHIDWHLNAGFAIVFAEDTADIASANPVPDSWSDLCPTYDALPSDEV
notes: codon-optimized cDNA in pPicZalphaA, C-terminal L497V to remove possible ER-retention signal SDEL, secreted from Pichia pastoris X-33, purified in two steps
B2: rOrLcc1 (variant rOrLcc1-D208N) (Obba rivulosa; D229N) (protein)
chain: AIGPVTDLVITDAFVTPDGPNLGREAVLAGGTFPGPLIQGNKGDNFQINVVNNLTNHTMLKTTSIHWHGLFQHGTNWADGPAFVNQCPIASGNSFLYNFNVPDQAGTFWYHSHLATQYCDGLRGPLVVYDPNDPYADLYDVDDESTVITLSDWYHAAASTLTFPTFDTTLINGLGRFAGTGGTDSDLAVITVEQGKRYRFRLAAISCNPNWVFSIDEHVMTIIEADAVNTLPLTVDAIQIFAAQRYSFVLNANQTVGNYWIRANPNNGNMGFANGINSAILRYSGATIEDPTTNSTIVNQLNEADLSPLTNPQAPGAPSQDPGAVDVAMNLAFSFNGTRLFINGVSFVPPSVPVLLQILSGSMTAQDLLPTGSVYTLPRNATVQISMPGNIIAGPHPFHLHGHTFSVIRSAGESDYNYDNPVQRDTVSIGGATDNVTIRFTTNNPGPWFLHCHIDWHLQAGFAIVFAEDTPDIASANPVPQAWSDLCPTYDALDPSDT
notes: codon-optimized cDNA in pPicZalphaA, secreted from Pichia pastoris X-33, purified in two steps

Substrate: COc1cccc(OC)c1O
Assay: purified protein
Assay type: biochemical, Obba rivulosa
Conditions: O2 co-substrate, error is 95% confidence interval
[1] = pH 6.0, citrate phosphate buffer, 0-2 mM substrate
[2] = pH 3.5, citrate phosphate buffer, 0-31 mM substrate

| Protein | Km [1] [µM] | Vmax [1] [µM/min] | kcat [1] [s⁻¹] | kcat/Km [1] [M⁻¹ s⁻¹] | Km [2] [µM] | Vmax [2] [µM/min] | kcat [2] [s⁻¹] | kcat/Km [2] [M⁻¹ s⁻¹] |
| --- | --- | --- | --- | --- | --- | --- | --- | --- |
| B1 | 38 ± 0 | 150 | 112 | 2.95e+06 |  |  |  |  |
| B2 |  |  |  |  | 3668 ± 270 | 216 | 44 | 12000 |
